The values that follow come from the domain aggregation screens of Martell et al. (2025).

The nature of the data set: soluble fraction after stress (log2 fold change); higher = more stays soluble; pooled small domains, quantitative proteomics. Particulars: stress: pH 4. In a few lines:
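Small protein domains from pooled custom libraries were exposed to pH 4, then quantified with high-throughput quantitative proteomics. The fold change in how much of each domain remains soluble is read as aggregation propensity. It is given as log2, with higher values meaning more stayed soluble.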
As to “HMAGTWQDQGNGQWKYQNDDGSYATGWIEDSGKSYYLDANGIMLANTTTPDGKQVGPDGALIP”, the “soluble fraction (log2)” value was -1.69.
Take “HMAHETIDVAALRVGMFVQLDLGWLSHPFPLSSFRISSEDQIATIRALGLKRVRWSSEQSDS”: the “soluble fraction (log2)” value is -2.26.
“HMAHPRTHEALNPLWEKYLGPNAGNDFFLSGGTSLKALMFLKDLEKTLNKRIAIHAFFKDPTYEHVVSD”: the “soluble fraction (log2)” value was -0.467.
With “HMAHTGGNTLTREKAVSVRSASDALLFEIHWNETPREDILSTREEKVDGKTYSIITIRTGKGREDHYYLLS” the figure was 0.295; with “HMAHYPGKVNNELVEFIRSEQRKTPHMTLTGLNRKLQRTYDLTLSESTVRKLVEAETILPLAREPD”, 0.217; with “HMAIDLPVTTVNGKDYYYYDVQPKETIFSLSQRLGISREEIISYNPGVDGGLKAYTRLYFPVESGL”, -0.0117.
Take “HMAIDLSLIPGNLLRELHGAVEDGDMYRIRELIRSISAVDEKVGKELLLLAERYDYERLLELVND”: the “soluble fraction (log2)” value is -1.03.
Regarding “HMAIDWVQIKAEYISGTMSASKLAEKHGVSVYAIRKRSGKERWQELRRQNQSETANKIAEKI”, the “soluble fraction (log2)” value was -0.0638.
Turning to “HMAIDYYQTLINLGYKLQDRGDYWQTSAIHRGGDNPTALQIYKNTGVWKDYVSGGGFKPFKALVEKSD”, the “soluble fraction (log2)” value is -0.35.
Consider “HMAIELTPRQLDIIELVRKHAPITGEQIAELLGVTRPSIRSDLGLLVMLGYIDAKPKVGYFAGPRM”, for which the “soluble fraction (log2)” value was -0.893.
For “HMAIGSRLKVTTDATNLNIRSTPSTEGDIVGKAAHHEIVTLVEKTDDSWWKIKTNDGEEGYAYAQYLSPV”, the “soluble fraction (log2)” value is 0.0608.
With “HMAIIQSNNIFKSQKEIVDEILVELDIPKDKWNFFHMLISSGYKDEFDTNRIYEIIQTNYNMMDR” the figure was -0.693; with “HMAILDTALDVLSMNLKDNYTSFQILRQAAIAGKIAFNLTEKNPLGGVIEVELTGDDLETWIEAATW”, -0.697.
Regarding “HMAIMISINAKGEVAWNDQIISLDDLAQRFNAAGQQAQKPTVQLRADKESRYDMVAQVMSRASEAGLSDIA”, the “soluble fraction (log2)” value was -0.966.
Consider “HMAIRLIKASREFNVGISTIVEFLEKKGHAIDSDPNSKIPDELYQLIEKEFQTEGSVKKAAKQI”, for which the “soluble fraction (log2)” value was -0.335.
The value for “HMAITLEVAKKHLEMWLEAESEVAINQSYTIGGKSFTRANLAEIRKQIEYWSNKVAELENLA” was -0.247; that for “HMAITYETKVISGVNLRSAPSTSASVYQLIPKGENIHVVQKVNDYWLKVQTKDGKTGYISASSKYTNYIG” was 0.0502.
The value for “HMAIWAVFYKNEPFNLKSFNSLTSYPGPKYKKTSFSNPGHALNLAKKLNLTFGTEDFQVVKLTQGTIV” was 0.00875; that for “HMAKIEVENLEETILENLKANNGFMPYNDKTSPEEIYEVFHVSKKHFKNSLGGLMKKGLIFQNEKGTKL” was -0.444.
With “HMAKITERVMGSAALRDYDPNYLPDEVLKALDGYPPFDGYVYKDGILYARVKIGDTFFIIPPI” the figure was -1.84; with “HMAKKDVESTLGGRLRVARVRAGLTQVELARMLGMNSVSLSNVEGGRRGLSMKQLVRVAKILEVPVAYLLG”, 0.151; with “HMAKMPSIIIMKDGVIRTSELEQIERDENWLNEEMKKQHIDNPEDVFLAEFWDGKVNFILQDGKIK”, -0.78.
With “HMAKNDSGLNNHTFNTIRDALQKALTDGPQEAKKLTENLPFPADKIITVIRYLADHDEHFSLEDGIISLT”, the “soluble fraction (log2)” value is -0.0785.
With “HMAKNIEVPNLVGSTISVARNDLKQLGLHVIVRDSVWSEDKKIDTILEQFPEPGKKLKPEGVVQVVVSI” the figure was 0.0706.
With “HMAKNSVLTIELWNSTAFKWRKDTEPYSESMSVDFNRSVRLTDGISIMFSKFGFVPGIQYLIPLQT”, the “soluble fraction (log2)” value is -0.331.
As for “HMAKQQTTTTAHVVTTGETLYSIAQKNGISVEELKKSNNITSDKLRPGQTLHITKVSKTSSTAK”, the “soluble fraction (log2)” value was 0.129.
The value for “HMAKRPRFEDVIKEINTEIQKRKGKWNLTILSWMDFDDVAQVIRIHIYRKWHLYDPSKPLGPWLNR” was 0.322; that for “HMAKSETAKIKATPYGWLRVRDTPSLNGAEIARVNSGDEYKVLEKETGWIKIKVSDTVEGWVSDAYIELS” was 0.16; that for “HMAKSKYETHVLPNLDKIIKWAKAGATAKEIAANLHIAYSTFRKYLDEGQEGDERYAALSAAFAQA” was 0.22.
In the case of “HMALDLNEDEKLLVELIEKAGGTAGLGELKEASGLSGKKWDKTTKNLSKEGLIKVEKNESGLWVHLT”, the “soluble fraction (log2)” value is -0.423.
For the sequence “HMALDLPVKRVKGKEYYYYKVKKGESLYGISKHLGLPLDSIVKSNPSVADGVRKGDMLLFPLEEYT”, the “soluble fraction (log2)” value worked out at 0.115.
With “HMALKQADFDFIRQMIQQRAAIVLDDNKHYFVESRLGPVVEETGSKSLDQLIDQLRSSSNSLLQQKVTEAI” the figure was -0.324.
The value for “HMALLSDEERIATVFAARLGGYSHQEIYKLLQDRFGPSLPAAYSEKSVLTDLQTALSQVPSL” was -1.41.
For “HMALPEHIEPFLRGLGQALAEGDSYEDVQERLLRAYPYLDSTEFQTALARVIFISDLWGRLN”, the “soluble fraction (log2)” value is -1.02.
With “HMALPPPELRGATGEAVTALRPAGIALIQGKRYDVLAEGGEWIAAGAAVRVRDIRNGHLIVSDA” the figure was 0.166; with “HMALRFMAYGRINGTNVHFRTGASASTASLGRYSRGTEFGVYDKIGGWYRVRLLSTGQEGYVYSRYLTLTG”, -0.0807; with “HMALSGTVQNFAGGIMILIFRPFKTGDYIEALGYFGKVSEVNIVSTKLRTFDNKTIILPNGALSNGNIQNY”, -0.775.
The value for “HMALSSQQIKDMQSWYGTKADGIWGSKSTTAAGGRDAGAAYSLYSSNKGRYSSYTDYMSYGGG” was -0.000306; that for “HMALSTRERMSFVLEVLKEKEFIPFVDLFSPEEGRAGVVVTFLALMELMKDSLIEIVQTKNFGEIHVRARL” was -1.07; that for “HMALTQEQLGQRLQDARKSVALTQQEVAEDLGLSRESLAQIEAGSRSVNSLEIVRLARLYGRSLSSILLE” was -0.299.
Regarding “HMALYSEQVSEIEKALMSLPPKYQLVMLLLYAEDLKYEQIAEILDEPIGTVKTKIHRARKILKERF”, the “soluble fraction (log2)” value is -0.0112.
For “HMAMDSGELEAIVDRLISEHPDDWAALTAGDDRERKKKSGFFVGEVMKATRGQADGRAVIELLASRSA”, the “soluble fraction (log2)” value was -0.605.
As to “HMAMDYTVVHSDRRTIAIQIQRDGRVVVRAPYAATAEDIRRVVDSHRDWVEKTVRRQQEQLAAS”, the “soluble fraction (log2)” value was 0.238.
The value for “HMAMNITQRHQEILAVIKQEKHITVSEISKLLGVSEVTIRKDFNYLEEKNLIYRHHGGASLNN” was -0.0786; that for “HMAMPQPVARALHRLGQDISAARRMRRLSQEDLAQRIGTSLSTVRRMEDGYPGTALHTFLRALHML” was -0.4; that for “HMAMSDFDALSNRISTLSQGRASAVRMKDGIVSLVLDIGGLSAEERKAMTAAIEGEGRGYPSVTQVRILET” was 0.0485.
Regarding “HMANAGKFDSDMGEKINFPGNRVSLTPSELEAARELAAIMGDRFFSQLIPTTSKVTVTEMLQSLK”, the “soluble fraction (log2)” value is -0.849.
As for “HMANGTVKWFNTTKGFGFIAPETGGKDVFVHISAVERSGLTGLADDQKVTFDVEAGRDGRESAVNLAL”, the “soluble fraction (log2)” value was -0.613.
The value for “HMANKTVPNVSGKTVAEARAIIENQSLQVGEEKEEYSDSVAEGYIIRTNPTAGSQKKEQSKIDLVVSKG” was -0.211; that for “HMANLDSLIKKVGQYAKDKQSISVDGIKKDLSIDKDMVKEALAELLKIGVVDKPDEAGQYKVIM” was 0.0802.
